# In US20040086528A1:
# Where “and” joins values, the source holds several entries; their conditions need not be identical. Identical values can stand only once.
# Legend:
# [1] = biological target: chemokine receptor C-C CKR-5 (human) (human) (UniProt P51681); test: 125I-MIP-1β (0.1 nM) competition on activated CD4+ T cells; gp120 at 0.1 µg/ml
# [2] = biological target: chemokine receptor C-C CKR-5 (human) (human) (UniProt P51681); test: 125I-MIP-1β (0.1 nM) competition on activated CD4+ T cells; gp120 at 0.2 µg/ml
# [3] = biological target: chemokine receptor C-C CKR-5 (human) (human) (UniProt P51681); test: 125I-MIP-1β (0.1 nM) competition on activated CD4+ T cells; gp120 at .05 µg/ml [sic]
# [4] = biological target: CD4 on the cell surface (human) (human) (UniProt P01730); test: cell-based or functional assay
# [5] = biological target: chemokine receptor C-C CKR-5 (human) (human) (UniProt P51681); test: 125I-MIP-1β (0.1 nM) competition on activated CD4+ T cells; gp120 at 20 µg/ml
# [6] = biological target: CCR5 D2A/D11A/E18A, HA-tagged (human) (UniProt P51681); test: cell-based or functional assay
# [7] = biological target: CCR5 E18A, HA-tagged (human) (UniProt P51681); test: cell-based or functional assay
# [8] = biological target: CCR5 D11A, HA-tagged (human) (UniProt P51681); test: cell-based or functional assay
# [9] = biological target: CCR5 D2A, HA-tagged (human) (UniProt P51681); test: cell-based or functional assay
# [10] = biological target: CCR5 D95A, HA-tagged (human) (UniProt P51681); test: cell-based or functional assay
# [11] = biological target: CCR5 E262A, HA-tagged (human) (UniProt P51681); test: cell-based or functional assay
# [12] = biological target: CCR5 H175A, HA-tagged (human) (UniProt P51681); test: cell-based or functional assay
# [13] = biological target: CCR5 H181A, HA-tagged (human) (UniProt P51681); test: cell-based or functional assay
# [14] = biological target: CCR5 K171A/E172A, HA-tagged (human) (UniProt P51681); test: cell-based or functional assay
# [15] = biological target: CCR5 K191A/N192A, HA-tagged (human) (UniProt P51681); test: cell-based or functional assay
# [16] = biological target: CCR5 K22A, HA-tagged (human) (UniProt P51681); test: cell-based or functional assay
# [17] = biological target: CCR5 K26A, HA-tagged (human) (UniProt P51681); test: cell-based or functional assay
# [18] = biological target: CCR5 N13A, HA-tagged (human) (UniProt P51681); test: cell-based or functional assay
# [19] = biological target: CCR5 Q102A, HA-tagged (human) (UniProt P51681); test: cell-based or functional assay
# [20] = biological target: CCR5 Q188A, HA-tagged (human) (UniProt P51681); test: cell-based or functional assay
# [21] = biological target: CCR5 Q93A, HA-tagged (human) (UniProt P51681); test: cell-based or functional assay
# [22] = biological target: CCR5 R274A/D276A, HA-tagged (human) (UniProt P51681); test: cell-based or functional assay
# [23] = biological target: CCR5 R31A, HA-tagged (human) (UniProt P51681); test: cell-based or functional assay
# [24] = biological target: CCR5 Y184A, HA-tagged (human) (UniProt P51681); test: cell-based or functional assay
# [25] = biological target: chemokine receptor C-C CKR-5 (human) (human) (UniProt P51681); test: cell-based or functional assay
# [26] = biological target: wild-type CCR5, HA-tagged at the C-terminus (human) (UniProt P51681); test: cell-based or functional assay
# [27] = biological target: recombinant, monomeric JR-FL gp120 (full-length) (HIV-1 JR-FL) (UniProt P20871); test: JR-FL gp120 (2 µg/ml) against 125I-MIP-1β on activated CD4+ T cells; antibody at 20 µg/ml
substance,measurement,setting,value
92TH014 gp120 (monomeric),percentage inhibition of 125I-MIP-1β binding,[1],6%
same,percentage inhibition of 125I-MIP-1β binding,[2],57%
same,percentage inhibition of 125I-MIP-1β binding,[3],65%
CD4 MAb OKT4a (antibody),"% Fusion (RET), LW5 CD4+ cells with HeLa-BRU cells, OKT4A at 3 ug/ml",[4],0%
same,"% Fusion (RET), LW5 CD4+ cells with HeLa-JR-FL cells, OKT4A at 3 ug/ml",[4],0%
CM243 gp120,percentage inhibition of 125I-MIP-1β binding,[5],76%
same,percentage inhibition of 125I-MIP-1β binding,[1],17%
same,percentage inhibition of 125I-MIP-1β binding,[2],40%
same,percentage inhibition of 125I-MIP-1β binding,[3],56%
HIV-1 JR-FL envelope glycoproteins (membrane-bound gp120/gp41),"co-receptor function of CCR5 (HIV-1 entry, luciferase), fold reduction",[6],50 fold
same,"co-receptor function of CCR5 (HIV-1 entry, luciferase), fold reduction",[7],15 fold and 20 fold
"MIP-1α, recombinant human (from UniProt P10147 27-92) (ligand)",relative % inhibition of NLluc/JR-FL entry into U87MG-CD4 cells by 2 µg/ml chemokine (wild-type = 100),[8],10%
same,relative % inhibition of NLluc/JR-FL entry into U87MG-CD4 cells by 2 µg/ml chemokine (wild-type = 100),[9],81%
same,relative % inhibition of NLluc/JR-FL entry into U87MG-CD4 cells by 2 µg/ml chemokine (wild-type = 100),[10],107%
same,relative % inhibition of NLluc/JR-FL entry into U87MG-CD4 cells by 2 µg/ml chemokine (wild-type = 100),[7],100%
same,relative % inhibition of NLluc/JR-FL entry into U87MG-CD4 cells by 2 µg/ml chemokine (wild-type = 100),[11],100%
same,relative % inhibition of NLluc/JR-FL entry into U87MG-CD4 cells by 2 µg/ml chemokine (wild-type = 100),[12],119%
same,relative % inhibition of NLluc/JR-FL entry into U87MG-CD4 cells by 2 µg/ml chemokine (wild-type = 100),[13],29%
same,relative % inhibition of NLluc/JR-FL entry into U87MG-CD4 cells by 2 µg/ml chemokine (wild-type = 100),[14],21%
same,relative % inhibition of NLluc/JR-FL entry into U87MG-CD4 cells by 2 µg/ml chemokine (wild-type = 100),[15],14%
same,relative % inhibition of NLluc/JR-FL entry into U87MG-CD4 cells by 2 µg/ml chemokine (wild-type = 100),[16],19%
same,relative % inhibition of NLluc/JR-FL entry into U87MG-CD4 cells by 2 µg/ml chemokine (wild-type = 100),[17],100%
same,relative % inhibition of NLluc/JR-FL entry into U87MG-CD4 cells by 2 µg/ml chemokine (wild-type = 100),[18],121%
same,relative % inhibition of NLluc/JR-FL entry into U87MG-CD4 cells by 2 µg/ml chemokine (wild-type = 100),[19],107%
same,relative % inhibition of NLluc/JR-FL entry into U87MG-CD4 cells by 2 µg/ml chemokine (wild-type = 100),[20],95%
same,relative % inhibition of NLluc/JR-FL entry into U87MG-CD4 cells by 2 µg/ml chemokine (wild-type = 100),[21],88%
same,relative % inhibition of NLluc/JR-FL entry into U87MG-CD4 cells by 2 µg/ml chemokine (wild-type = 100),[22],48%
same,relative % inhibition of NLluc/JR-FL entry into U87MG-CD4 cells by 2 µg/ml chemokine (wild-type = 100),[23],-5%
same,relative % inhibition of NLluc/JR-FL entry into U87MG-CD4 cells by 2 µg/ml chemokine (wild-type = 100),[24],102%
same,"% Fusion (RET), LW5 CD4+ cells with HeLa-JR-FL cells, chemokine at 533 ng/ml",[25],72%
same,"% Fusion (RET), PM1 cells with HeLa-JR-FL cells, chemokine at 400 ng/ml",[25],39%
same,"% luciferase activity, entry of ADA env-complemented virus into PM1 cells, chemokine at 100 ng/ml",[25],54%
same,"% luciferase activity, entry of BaL env-complemented virus into PM1 cells, chemokine at 100 ng/ml",[25],54%
same,relative % inhibition of NLluc/JR-FL entry into U87MG-CD4 cells by 2 µg/ml chemokine (wild-type = 100),[26],100%
SF170 gp120,percentage inhibition of 125I-MIP-1β binding,[1],87%
same,percentage inhibition of 125I-MIP-1β binding,[2],140%
W61D gp120,percentage inhibition of 125I-MIP-1β binding,[5],86%
same,percentage inhibition of 125I-MIP-1β binding,[1],39%
same,percentage inhibition of 125I-MIP-1β binding,[2],53%
same,percentage inhibition of 125I-MIP-1β binding,[3],65%
antibody D7324,Inhibition (%) of the gp120 competitive effect on 125I-MIP-1β binding,[27],-13%
monoclonal antibody 2G12,Inhibition (%) of the gp120 competitive effect on 125I-MIP-1β binding,[27],38%
monoclonal antibody 15e,Inhibition (%) of the gp120 competitive effect on 125I-MIP-1β binding,[27],65%
monoclonal antibody 17b,Inhibition (%) of the gp120 competitive effect on 125I-MIP-1β binding,[27],79%
